Measurements reported in doi:10.1101/228536 (bioRxiv, 2017).

T1: Med15 KIX+ABD1,2,3 (Med15 1-651 Δ239-272, Δ373-483) (yeast, UniProt P19659 1-651, Δ239-272 | Δ373-483)
T1 sequence (looked up): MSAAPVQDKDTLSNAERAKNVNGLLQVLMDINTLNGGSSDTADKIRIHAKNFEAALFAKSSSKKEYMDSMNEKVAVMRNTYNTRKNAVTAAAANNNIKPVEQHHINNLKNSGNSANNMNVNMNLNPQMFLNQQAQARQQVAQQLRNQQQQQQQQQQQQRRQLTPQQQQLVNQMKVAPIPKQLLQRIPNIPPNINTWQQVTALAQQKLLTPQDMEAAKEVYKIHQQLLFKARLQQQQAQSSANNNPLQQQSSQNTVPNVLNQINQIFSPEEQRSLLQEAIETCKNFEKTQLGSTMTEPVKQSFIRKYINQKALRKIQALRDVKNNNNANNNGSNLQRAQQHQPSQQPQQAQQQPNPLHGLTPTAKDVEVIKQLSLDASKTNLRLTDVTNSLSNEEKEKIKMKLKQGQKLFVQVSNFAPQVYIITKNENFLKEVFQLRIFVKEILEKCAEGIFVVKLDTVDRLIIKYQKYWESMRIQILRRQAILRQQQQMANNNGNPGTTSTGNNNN

T2: Med15 ABD3 (Med15 484-651) (yeast, UniProt P19659 484-651)
T2 sequence (looked up): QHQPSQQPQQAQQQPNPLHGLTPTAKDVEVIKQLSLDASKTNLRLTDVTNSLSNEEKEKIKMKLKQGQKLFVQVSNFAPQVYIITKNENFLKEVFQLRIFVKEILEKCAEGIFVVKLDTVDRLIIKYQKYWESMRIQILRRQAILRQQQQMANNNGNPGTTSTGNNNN

T3: Med15 ABD1,2,3 (Med15 158-651 Δ239-272, Δ373-483) (yeast, UniProt P19659 158-651, Δ239-272 | Δ373-483)
T3 sequence (looked up): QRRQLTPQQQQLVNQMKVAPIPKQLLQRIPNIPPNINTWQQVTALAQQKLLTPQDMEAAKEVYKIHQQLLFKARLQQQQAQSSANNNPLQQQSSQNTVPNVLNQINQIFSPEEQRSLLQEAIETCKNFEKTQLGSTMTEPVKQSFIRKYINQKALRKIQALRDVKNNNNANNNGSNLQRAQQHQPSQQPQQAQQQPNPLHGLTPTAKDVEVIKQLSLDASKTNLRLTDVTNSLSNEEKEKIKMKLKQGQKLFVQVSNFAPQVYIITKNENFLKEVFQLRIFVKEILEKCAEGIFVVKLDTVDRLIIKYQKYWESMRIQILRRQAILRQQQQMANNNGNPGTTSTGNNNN

T4: Med15 ABD2 (Med15 277-368) (yeast, UniProt P19659 277-368)
T4 sequence (looked up): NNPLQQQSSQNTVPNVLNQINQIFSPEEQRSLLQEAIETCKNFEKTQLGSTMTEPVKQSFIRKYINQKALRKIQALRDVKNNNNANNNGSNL

B1: Oregon Green-labeled Ino2 1-41-(GS)3-96-160 (domain or fragment, yeast)
chain: MQQATGNELLGILDLDNDIDFETAYQMLSSNFDDQMSAHIHGSGSGSPHQPSMGFDQALGLKLSPSSSGLLSTNESNAIEQFLDNLISQDMMSSNASMNSESHLHIRSPKKQ
modifications: Oregon Green 488 dye, N-terminal fluorescent label
B2: Ino2 1-41-(GS)3-96-160 (domain or fragment, yeast)
chain: B1 chain
B3: Med15 ABD1 (Med15 158-238) (domain or fragment, yeast, UniProt P19659 158-238, looked up)
chain: QRRQLTPQQQQLVNQMKVAPIPKQLLQRIPNIPPNINTWQQVTALAQQKLLTPQDMEAAKEVYKIHQQLLFKARLQQQQAQ
B4: Met4 72-160 (domain or fragment, yeast, UniProt P32389 72-160, looked up)
chain: VTNRGNTNLYDHAVTPEILLEQLAYVDNFIPSLDNEFSNVDWNVNTTHNNANNNGADTFSSINANPFDLDEQLAIELSAFADDSFIFPD
B5: Oregon Green-labeled Met4 72-160 (domain or fragment, yeast, UniProt P32389 72-160, looked up)
chain: B4 chain
modifications: Oregon Green 488 dye, N-terminal fluorescent label

Columns and labels:
[1] = biological target: T1, Med15 KIX+ABD1,2,3 (Med15 1-651 …); experiment: fluorescence polarisation
[2] = biological target: T2, Med15 ABD3 (Med15 484-651); experiment: fluorescence polarisation
[3] = biological target: T3, Med15 ABD1,2,3 (Med15 158-651 Δ239-272, …); experiment: fluorescence polarisation
[4] = biological target: T4, Med15 ABD2 (Med15 277-368); experiment: ITC
[5] = biological target: T2, Med15 ABD3 (Med15 484-651); experiment: ITC
Met4 72-160 = biological target: B4; experiment: ITC
[6] = biological target: T1, Med15 KIX+ABD1,2,3 (Med15 1-651 …); experiment: cross-linking

Kd [1] [nM] | binding result [2] | Kd [3] [nM] | Kd [4] [nM] | Kd [5] [nM] | Binder | also measured
210 | binds | ~300 | – | – | B1 | –
– | – | – | 34000 | 7800 | B2 | –
– | – | – | – | – | B3 | binding result (Met4 72-160): binds
– | – | – | 20000 | 1360 | B4 | binding result [6]: binds
196 | binds | ~300 | – | – | B5 | –
